Measured values taken from US12371675B2, “Process and microorganism for synthesis of adipic acid from carboxylic acids” (THE GOVERNING COUNCIL OF THE UNIVERSITY OF TORONTO, priority 2015, dated 2025).

B1: EREDCK: 2-enoate reductase (ERED) from Clostridium kluyveri DSM 555 (protein)
chain: MKNKSLFEPIKIGNMEVKNKIAMAPMGAFGLVDNECCFNQRAVDYYVERAKGGTGLIITSVVKVENELDKVLTGVLPITSINPAKFIMTSSEMTERVHAYGSKIFLQLSMGFGRSGAPGGLLTSQPVSASAVPNYWDPTVTCRELTTSEVEWIVEKFAEGAKIAHKAGFDGVEIHAVHEGYLLDQFTLSIFNRRTDKYGGDLRGRLQLPIEIVEAIKTEVGSNFPVGLRYSVKSCIKDWGQGGLAEEDYVEKGRDLEEGLEAAKILEAAGYDAFNADLGTYDAWYWAHPPLYQKDGLYLPYTKELKKVVKIPVMVAGKMGMPDVAEGALEDEAADMVTLGRPLLCDAYWPKKVFTGQIDRIRPCIGCHTGCMGRGFEGRPLSCTVNPAAGRERYYEVKPAAAPKKVMIVGGGVAGMEAARITAMRGHKVSMYEGTKELGGQVIPASVPDFKIDDRRLLDWYRNEMKELKVKLVLDTNVTEEVVEKEKPDVVIIATGAKEIKLNLPGIEKDKVATVIEVLKGSKQVGENVLMVGGGLAGCETALYLAKQGKKVTIIEARDTILNAGKPVPHMNKIMLIDLLKNSGVNIITETSLLEVTDRGAILIDNKFKKQNIDADTVVIAVGFKADRELYNKLRDKVADLYLVGDANESANIMNAIWSANEIALNC
B2: SM2011_b21186: aminotransferase (AT) from Sinorhizobium meliloti (protein)
chain: MTSLTDRKNAAISRGVGMTTQVYADRAENAEIWDKEGNRYIDFAAGIAVVNTGHRHPKVIAAVKAQLDRFTHTCHQVVPYENYVHLAERLNAIVPGDFAKKTIFVTTGAEAVENAVKIARAATGRQAVVAFGGGFHGRTFMGMALTGKVVPYKVGFGAMPADVFHAPFPIELHGVTVEQSLSALKKLFAADVDPARVAAIIIEPVQGEGGFYPVPTAFMKALREVCDQHGILLIADEVQTGFARTGKLFAMEHHGVAPDLTTMAKSLAGGFPLAAVTGRAEIMDAPGPGGLGGTYGGNPLGIAAAHAVLDVIAEENLCERANQLGNRLKQRLAAIREKAPEIVDIRGPGFMNAVEFNDVRTNLPSAEFANKVRLLALEKGLILLTCGVHGNVIRFLAPITIQDEVFAEALDTIEASILEARG
B3: SM2011_b20423: aminotransferase (AT) from Sinorhizobium meliloti (protein)
chain: MLERSNELTAWDRDHFFHPSTHMGMHARGETPTRVIGGGEGVYITDISGKRSLDAFAGLYCVNVGYGRQKIADAIAEQAKNLAYYHAYVGHGTEASIRLSKMIIDRAPEGMSRVYFGLSGSDANETNIKLIWYYNNILGRPEKKKIISRWRGYHGSGVMTGSLTGLHLFHNAFDLPRAPILHTEAPYYFRRPDRSMSEEQFSQYCADKLEEMILAEGPDTVAAFIGEPILGTGGIVPPPKGYWEKIQAVLQKYDILLVADEVVTGFGRLGTMFGSDHYGIKPDLITIAKGLTSAYAPLSGTIVSDKLWQVLVKGSDELGAIGHGWTYSAHPICAAAGIANLELIDELGIVENAGSTGAYFRAELQKAVGDHRHVGEVRGDGLMAAIEFVEDRDDRAFFDPGRKVGPQVAAALLERGVIGRAMPQGDILGFAPPLCLTRDEADIVVKAAADTIQSVLGR
B4: gabT: aminotransferase (AT) from Escherichia coli (protein)
chain: MNSNKELMQRRSQAIPRGVGQIHPIFADRAENCRVWDVEGREYLDFAGGIAVLNTGHLHPKVVAAVEAQLKKLSHTCFQVLAYEPYLELCEIMNQKVPGDFAKKTLLVTTGSEAVENAVKIARAATKRSGTIAFSGAYHGRTHYTLALTGKVNPYSAGMGLMPGHVYRALYPCPLHGISEDDAIASIHRIFKNDAAPEDIAAIVIEPVQGEGGFYASSPAFMQRLRALCDEHGIMLIADEVQSGAGRTGTLFAMEQMGVAPDLTTFAKSIAGGFPLAGVTGRAEVMDAVAPGGLGGTYAGNPIACVAALEVLKVFEQENLLQKANDLGQKLKDGLLAIAEKHPEIGDVRGLGAMIAIELFEDGDHNKPDAKLTAEIVARARDKGLILLSCGPYYNVLRILVPLTIEDAQIRQGLEIISQCFDEAKQ
B5: Spo3471: aminotransferase (AT) from Ruegeria pomeroyi (protein)
chain: MATITNHMPTAELQALDAAHHLHPFSANNALGEEGTRVITRARGVWLNDSEGEEILDAMAGLWCVNIGYGRDELAEVAARQMRELPYYNTFFKTTHVPAIALAQKLAELAPGDLNHVFFAGGGSEANDTNIRMVRTYWQNKGQPEKTVIISRKNAYHGSTVASSALGGMAGMHAQSGLIPDVHHINQPNWWAEGGDMDPEEFGLARARELEEAILELGENRVAAFIAEPVQGAGGVIVAPDSYWPEIQRICDKYDILLIADEVICGFGRTGNWFGTQTMGIRPHIMTIAKGLSSGYAPIGGSIVCDEVAHVIGKDEFNHGYTYSGHPVAAAVALENLRILEEENILDHVRNVAAPYLKEKWEALTDHPLVGEAKIVGMMASIALTPNKASRAKFASEPGTIGYICRERCFANNLIMRHVGDRMIISPPLVITPAEIDEMFVRIRKSLDEAQAEIEKQGLMKSAA
B6: Syrb2: aminotransferase (AT) from Pseudomonas syringae (protein)
chain: MSKKFALTAEQRASFEKNGFIGPFDAYSPEEMKETWKRTRLRLLDRSAAAYQDLDAISGGTNIANYDRHLDDDFLASHICRPEICDRVESILGPNVLCWRTEFFPKYPGDEGTDWHQADTFANASGKPQIIWPENEEFGGTITVWTAFTDANIANGCLQFIPGTQNSMNYDETKRMTYEPDANNSVVKDGVRRGFFGYDYRQLQIDENWKPDEASAVPMQMKAGQFIIFWSTLMHASYPHSGESQEMRMGFASRYVPSFVHVYPDSDHIEEYGGRISLEKYGAVQVIGDETPEYNRLVTHTTRGKKFEAV
B7: Mll7127: aminotransferase (AT) from Rhizobium loti (protein)
chain: MLNQSNELNAWDRDHFFHPSTHMGTHARGESPTRIMAGGEGVTVWDNNGRKSIDAFAGLYCVNVGYGRQKIADAIATQAKNLAYYHAYVGHGTEASITLAKMIIDRAPKGMSRVYFGLSGSDANETNIKLIWYYNNVLGRPEKKKIISRWRGYHGSGVMTGSLTGLDLFHNAFDLPRAPVLHTEAPYYFRRTDRSMSEEQFSQHCADKLEEMILAEGPETIAAFIGEPILGTGGIVPPPAGYWEKIQAVLKKYDVLLVADEVVTGFGRLGTMFGSDHYGIKPDLITIAKGLTSAYAPLSGVIVADRVWQVLVQGSDKLGSLGHGWTYSAHPICVAAGVANLELIDEMDLVTNAGETGAYFRAELAKAVGGHKNVGEVRGDGMLAAVEFVADKDDRVFFDASQKIGPQVATALAASGVIGRAMPQGDILGFAPPLCLTREQADIVVSKTADAVKSVFANL

Assay: Whole-cell biotransformation of muconic acid by E. coli expressing EREDs
Type: cell-based
Conditions: 0.7 mM, 24-hr incubation
Protocol: After a 24-hr incubation, no muconic acid or 2-hexenedioic acid were detected in the culture, and a 99% yield of adipic acid was obtained (FIGS. 8a, 8b, and 8c). […] The 3-hexenedioic acid-like compound appears to be an inefficient substrate for these EREDS. This is similar to the mutated 2,4-dienoyl-CoA reductases from E. coli, which catalyze hydrogenation of 2,4-dienoyl CoA into 3-enoyl CoA (Tu, X., Hubbard, P. A., Kim, J. J. P. & Schulz, H. Two distinct proton donors at the active site of Escherichia coli 2,4-dienoyl-CoA reductase are responsible for the formation of different products. Biochemistry 47, 1167-1175 (2008).).

Molecule | yield of adipic acid from trans,trans-muconic acid [%]
B1 | 99

Assay: AT activity coupled with alanine and glutamate dehydrogenases
Type: biochemical
Conditions: 10 mM adipaldehyde, alanine and glutamate amino-donors; ND = no activity was detected

Molecule | Adipaldehyde 10 mM U/mg [U/mg]
B2 | 0.051 ± 0.014
B3 | 0.162 ± 0.002
B4 | 0.337 ± 0.008
B5 | 0.021 ± 0.001
B6 | 0.040 ± 0.001
B7 | 0.063 ± 0.001
